Results: article PMC3407074

Columns and labels:
[1] = target: recP12-Cd4d3/4-bio (Plasmodium falciparum); assay: SPR; BIAcore T100, 37°C; recP12 captured on a streptavidin chip; two-fold dilutions from 3.6 µM recP41-Cd4d3/4-6H at 100 µL/min; kinetic analysis, 1:1 binding model
[2] = target: recP12-Cd4d3/4-bio (Plasmodium falciparum); assay: SPR; BIAcore T100, 37°C; recP12-Cd4d3/4-bio captured on a streptavidin chip, biotinylated Cd4d3/4 as reference; serial dilutions of recP41-Cd4d3/4-6H at 10 µL/min; equilibrium analysis, Langmuir isotherm

recP41-Cd4d3/4-6H (domain or fragment)
koff [1]: 0.0212 s⁻¹
kon [1]: 134000 M⁻¹ s⁻¹
Kd [2]: 310 nM
